Experimental data: patent US20100322937A1

Key:
[1] = target: wtEGFR: full-length human EGFR with FLAG tag after the leader, on BaF/3 cells (human) (UniProt P00533); assay: FACS, wtEGFR-BaF/3 cells after mock preincubation, antibody at 10 µg/ml
[2] = target: wtEGFR: full-length human EGFR with FLAG tag after the leader, on BaF/3 cells (human) (UniProt P00533); assay: FACS median fluorescence, wtEGFR-BaF/3 cells preincubated with mAb[…] (10 µg/ml, 37 C, 1 hr)
[3] = target: wtEGFR: full-length human EGFR with FLAG tag after the leader, on BaF/3 cells (human) (UniProt P00533); assay: FACS median fluorescence, wtEGFR-BaF/3 cells preincubated with EGF (10 ng/ml, 4 C, 15 min)
[4] = target: EGFR 273-621 C287R, yeast surface displayed (UniProt P00533); assay: titration on yeast surface displayed fragment, flow cytometry, global fit of three data sets
[5] = target: wild-type EGFR 273-621 (C283A template), yeast surface displayed, C-terminal c-myc tag (UniProt P00533); assay: as above
[6] = target: EGFR 273-621 C287R, yeast surface displayed (UniProt P00533); assay: from titration on yeast surface displayed fragments
[7] = target: EGFR 273-621 E293K, yeast surface displayed (UniProt P00533); assay: as above

monoclonal antibody 806 (mAb 806), murine IgG2b anti-EGFR, sequence (VH): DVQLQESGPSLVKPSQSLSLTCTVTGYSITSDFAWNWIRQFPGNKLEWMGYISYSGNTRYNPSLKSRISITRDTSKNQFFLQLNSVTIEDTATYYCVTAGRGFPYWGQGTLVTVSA
monoclonal antibody 806 (mAb 806), murine IgG2b anti-EGFR, sequence (VL): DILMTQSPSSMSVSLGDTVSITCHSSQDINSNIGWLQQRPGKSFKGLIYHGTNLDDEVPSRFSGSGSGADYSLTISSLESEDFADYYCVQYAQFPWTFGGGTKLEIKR

median fluorescence [1] | change (%) in antibody reactivity after preincubation [2] | change (%) in antibody reactivity after preincubation [3] | Kd [4] | Kd [5] | ΔΔG compared to wild-type [6] | ΔΔG compared to wild-type [7] | Substance
112 | -3% | -23% |  |  |  |  | monoclonal antibody 528 (mAb 528), IgG2a anti-EGFR
7 | 163% | -48% | 0.127 µM | 0.00213 µM | 10 kJ/mol | 23.8 kJ/mol | monoclonal antibody 806 (mAb 806), murine IgG2b anti-EGFR
